The assay has as its target T1, CD19 antigen (UniProt P15391 20-556, limits assumed).
T1 construct: whole, on cells; the cell lines are human
T1 sequence (looked up): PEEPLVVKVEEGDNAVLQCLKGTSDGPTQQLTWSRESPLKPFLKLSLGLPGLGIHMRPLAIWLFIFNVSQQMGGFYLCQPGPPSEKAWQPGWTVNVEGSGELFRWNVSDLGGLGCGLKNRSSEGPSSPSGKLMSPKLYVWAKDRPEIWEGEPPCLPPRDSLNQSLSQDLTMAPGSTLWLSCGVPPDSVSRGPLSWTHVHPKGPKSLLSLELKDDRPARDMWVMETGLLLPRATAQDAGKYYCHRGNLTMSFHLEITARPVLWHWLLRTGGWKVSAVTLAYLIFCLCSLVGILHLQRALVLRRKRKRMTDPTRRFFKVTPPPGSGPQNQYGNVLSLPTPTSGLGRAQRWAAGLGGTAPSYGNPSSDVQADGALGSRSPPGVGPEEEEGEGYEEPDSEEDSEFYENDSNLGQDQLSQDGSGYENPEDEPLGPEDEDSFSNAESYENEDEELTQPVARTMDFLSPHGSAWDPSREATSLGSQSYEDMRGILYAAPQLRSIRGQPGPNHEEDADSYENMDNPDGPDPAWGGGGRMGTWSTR
Kind of assay: flow cytometry on BV173 cells, detected with FITC-labeled Protein L. Here is the method:
1. T cell and BV173 cell experimental group: 5 μg of multi-function proteins TiTE-15, 16 were added to BV173 cells and 3×10\hat{ }5 T cells derived from mononuclear cell-rich white membrane layer of normal human peripheral blood by density gradient centrifugation, and stimulated by OKT3 (50 ng/mL) and IL2 (300 IU/mL) for 14 days, and incubated on ice for 30 min. The supernatant was removed by centrifugation and the cells were re-suspended in 200 μL of PBS. 2 μL of FITC-Labeled recombinant Protein L (ACRO Biosystem, RPL-PF141) was added and incubated on ice for 30 min. The supernatant was removed by centrifugation, washed twice in 500 μL PBS, and re-suspended in 200 μL of PBS.
T cell and BV173 cell negative control group: 3*10E5 T cells respectively (PBMC stimulated with 50 ng/mL OKT3, 300 IU/mL IL2) were mixed with BV173 cells (ATCC) first, and 2 μL APC Mouse anti-Human CD279 (BD, Cat. No. 558694) was added to the cells and incubated on ice for 30 min. The supernatant was removed by centrifugation, and the cells were re-suspended in 200 μL of PBS as a negative control.
Background: Flow cytometry measures light scatter and fluorescence of single cells or particles in a stream.

B1: multifunctional protein TiTE-15 (other)
chain: DIQMTQTTSSLSASLGDRVTISCRASQDISKYLNWYQQKPDGTVKLLIYHTSRLHSGVPSRFSGSGSGTDYSLTISNLEQEDIATYFCQQGNTLPYTFGGGTKLEITGSTSGSGKPGSGEGSTKGEVKLQESGPGLVAPSQSLSVTCTVSGVSLPDYGVSWIRQPPRKGLEWLGVIWGSETTYYNSALKSRLTIIKDNSKSQVFLKMNSLQTDDTAIYYCAKHYYYGGSYAMDYWGQGTSVTVSSGGGGSITCPPPMSVEHADIWVKSYSLYSRERYICNSGFKRKAGTSSLTECVLNKATNVAHWTTPSLKCIRDPALVHQSGGSGGGGSGGGSGGGGSLQDIQMTQSPSSLSASVGDRVTITCRASQDIRNYLNWYQQKPGKAPKLLIYYTSRLESGVPSRFSGSGSGTDYTLTISSLQPEDFATYYCQQGNTLPWTFGQGTKVEIKGGGGSGGGGSGGGGSEVQLVESGGGLVQPGGSLRLSCAASGYSFTGYTMNWVRQAPGKGLEWVALINPYKGVSTYNQKFKDRFTISVDKSKNTAYLQMNSLRAEDTAVYYCARSGYYGDSDWYFDVWGQGTLVTV
notes: Main peptide chain alone, no co-peptide chain
Consider B1, for which the binding result was “binds”.

For the origin of these results see patent US20220064289A1 (SHENZHEN BEIKE BIOTECHNOLOGY, published 2022).
